The text below walks through data of PMC4414194.

The target in one assay is HDAC4 (UniProt P56524). Put plainly: anti-GFP co-IP, anti-Flag blot. Particulars: reference: GATA1 wild type; sites S161,S187.
For a further assay, the target named is HDAC3 (UniProt O15379). Put plainly: anti-GFP co-IP, anti-Flag blot. Particulars: reference: GATA1 wild type; sites S161,S187.

Turning to “GATA1 (from UniProt P15976) GATA1 S161A S187A”, the “binding against the reference” value with HDAC4 and with HDAC3 was “weaker” throughout.
